The target of experiment [1] is T1, human C3a (human, UniProt P01024 672-748).
T1 construct: domain: C3a
The experiment is described as follows: Biolayer interferometry (Octet); biotinylated antigen on streptavidin tip, IgG in solution. (In general: BLI is a label-free optical method that tracks binding on a fibre tip over time.)
Experimental: (§2) These antibodies were evaluated for specificity using Biolayer Interferometry on an Octet (ForteBio Inc.).

The target of experiment [2] is T2, human C4a (human, UniProt P0C0L4 680-756).
T2 construct: domain: C4a
T2 sequence (looked up): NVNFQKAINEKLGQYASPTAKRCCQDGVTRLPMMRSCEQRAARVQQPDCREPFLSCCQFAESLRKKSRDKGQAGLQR
Described as above.
Experimental: as §2

Experiment [3] deals with T3, human C5a (human, UniProt P01031 678-751).
T3 construct: also called hC5a; free human C5a
T3 sequence: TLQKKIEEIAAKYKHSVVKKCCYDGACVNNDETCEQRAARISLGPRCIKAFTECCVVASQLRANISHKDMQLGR
Briefly: Biolayer interferometry (Octet); biotinylated antigen on streptavidin tip, 20 nM IgG in solution.
Experimental: as §2

For the next experiment, the target named is T4, human C5a desarg (human, UniProt P01031 678-750).
T4 construct: also called desarginated C5a; hC5a desarg
T4 sequence: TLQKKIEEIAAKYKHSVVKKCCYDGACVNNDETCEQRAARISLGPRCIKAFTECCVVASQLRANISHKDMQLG
The experiment is described as above.

The next experiment has as its target T5, human full-length C5 (human, UniProt P01031 19-673; P01031 678-1676).
T5 construct: mature; also called uncleaved human C5; native, fully-folded human C5
The experiment is described as follows: Octet analysis.

In experiment [4] the target is T1, human C3a. Briefly: Octet analysis.
In experiment [5] the target is T2, human C4a. The experiment is described as follows: Octet analysis.
The target of experiment [6] is T3, human C5a. The experiment is described as follows: SPR (Biacore); summary sentence of Table 4. As to the method:
(§1) See, e.g., Karlsson and Larsson (2004) Methods Mol Biol 248:389-415. […] The surface was regenerated with 20 mM HCl, 0.02% P20 after each cycle to remove bound antibody and antigen. The data was evaluated using Biacore BlAevaluation software using a 1:1 Langmuir Model Fit (Rmax:Global Fit; R1:Local Fit). Kinetics information such as (kₐ: Association Rate constant), (kd:Dissociation Rate constant) and KD (Equilibrium Dissociation constant) was obtained from the fit. These experiments were for screening purposes with a minimal number of analyte concentrations (3 to 4) with 1 duplicate.
In general terms: In SPR one partner is held on a chip, and binding of the other changes the refractive index at the surface.

For experiment [7], the target named is T3, human C5a. Briefly: SPR (Biacore); antibody captured by anti-human Fc on CM5 chip, human C5a 0.6-5.9 nM as analyte; 1:1 Langmuir fit. As to the method: as §1

Numbering of substitutions follows the chain as printed.

T1 sequence (P01024 672-748 limits assumed): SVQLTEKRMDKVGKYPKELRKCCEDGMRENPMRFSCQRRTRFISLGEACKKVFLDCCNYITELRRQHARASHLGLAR
T5 sequence (P01031 19-673 limits assumed, chain 1 of 2): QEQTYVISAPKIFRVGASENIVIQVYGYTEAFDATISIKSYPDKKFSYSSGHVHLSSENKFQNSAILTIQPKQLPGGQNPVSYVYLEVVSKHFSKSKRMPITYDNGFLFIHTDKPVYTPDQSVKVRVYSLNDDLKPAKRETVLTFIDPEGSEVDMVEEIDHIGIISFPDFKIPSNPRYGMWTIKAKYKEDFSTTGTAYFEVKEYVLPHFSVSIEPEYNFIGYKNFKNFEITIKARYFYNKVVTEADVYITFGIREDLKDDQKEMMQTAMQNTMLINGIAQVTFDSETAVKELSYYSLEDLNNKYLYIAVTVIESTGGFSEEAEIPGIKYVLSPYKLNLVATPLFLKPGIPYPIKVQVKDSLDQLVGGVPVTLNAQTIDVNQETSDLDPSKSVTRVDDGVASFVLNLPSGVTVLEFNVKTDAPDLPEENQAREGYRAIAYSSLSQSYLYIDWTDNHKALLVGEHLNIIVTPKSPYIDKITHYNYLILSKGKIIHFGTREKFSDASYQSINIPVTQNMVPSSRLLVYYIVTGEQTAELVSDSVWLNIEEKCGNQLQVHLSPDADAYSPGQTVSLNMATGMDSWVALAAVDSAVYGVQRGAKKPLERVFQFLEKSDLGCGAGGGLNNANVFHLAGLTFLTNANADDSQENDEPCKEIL
T5 sequence (P01031 678-1676 limits assumed, chain 2 of 2): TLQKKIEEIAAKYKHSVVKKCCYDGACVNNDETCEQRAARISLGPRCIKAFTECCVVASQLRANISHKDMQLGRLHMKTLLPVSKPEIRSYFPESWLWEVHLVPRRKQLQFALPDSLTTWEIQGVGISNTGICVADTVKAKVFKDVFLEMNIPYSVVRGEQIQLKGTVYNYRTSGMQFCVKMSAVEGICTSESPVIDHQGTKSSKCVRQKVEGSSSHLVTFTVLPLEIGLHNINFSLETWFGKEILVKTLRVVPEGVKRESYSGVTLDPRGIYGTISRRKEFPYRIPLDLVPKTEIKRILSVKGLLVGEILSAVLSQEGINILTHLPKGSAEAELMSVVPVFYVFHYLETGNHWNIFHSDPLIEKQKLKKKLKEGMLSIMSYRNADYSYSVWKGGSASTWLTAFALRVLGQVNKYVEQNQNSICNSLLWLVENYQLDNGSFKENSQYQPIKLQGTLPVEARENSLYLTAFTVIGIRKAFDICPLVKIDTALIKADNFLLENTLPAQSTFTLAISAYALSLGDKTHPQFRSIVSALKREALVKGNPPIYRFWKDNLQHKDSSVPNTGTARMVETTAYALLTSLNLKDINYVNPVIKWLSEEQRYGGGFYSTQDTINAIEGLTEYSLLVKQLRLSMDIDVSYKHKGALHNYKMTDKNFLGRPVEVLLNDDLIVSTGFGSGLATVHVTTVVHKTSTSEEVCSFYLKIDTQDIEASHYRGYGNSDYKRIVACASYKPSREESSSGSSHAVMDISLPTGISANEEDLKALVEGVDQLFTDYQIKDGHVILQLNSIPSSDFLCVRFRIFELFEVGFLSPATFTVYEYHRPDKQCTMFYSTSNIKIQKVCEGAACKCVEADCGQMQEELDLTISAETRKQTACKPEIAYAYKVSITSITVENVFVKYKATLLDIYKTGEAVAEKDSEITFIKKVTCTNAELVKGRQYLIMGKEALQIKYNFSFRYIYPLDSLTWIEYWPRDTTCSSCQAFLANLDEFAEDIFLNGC
Experimental for human C5a desarg: as §2

B1: 5an178ME (antibody, V domains shown)
VH: EVKLVESGGGLVQPGGSRKLSCAASGFTFSDYGMVWVRQAPGKGLEWVAFISSGSSNIYYADTVKGRFTISRDNPKNTLFLQMNSLRSEDTAIYYCGRAFSFYYGYDYWGQGTTLTVSS
VL: EIVLTQSPASLAVSLGQRATISCSASESVEYFGTSLMQWYQQKPGQPPKLLIYAASNVESGVPARFSGSGSGTDFSLNIHPVEEDDIAMYFCQQSRKVPWTFGGGTKLEIKR
notes: Full length mouse IgG2a
As to B1, the binding result with human C3a [1] is listed as “no binding (tested: 20 nM)”; with human C4a [2] it was “no binding (tested: 20 nM)”; with human C5a [3], “binds”; with human C5a desarg, “binds”.

B2: 5an048ME (antibody, V domains shown)
VH: EVRLQQSGPELVKPGASVRISCKASGYTFNDYYYMNWVKQSHGKSLEWIGYIFPKTGGTHYNQRFKGKATLTVDKSSSTAYMELRSLTSEDSAVYYCASGPFAYWGQGTLVTVSA
VL: EIVLTQSPAIMSASPGEKVTMTCRASSSVSSSYLHWYQQKSGASPKLWIYSTSNLASGVPARFSGSGSGTSYSLTISSVEAEDAATYYCQQYSGYPLTFGGGTKLEIKR
notes: Full length mouse IgG2a
Take B2: the binding result with human C3a [1] is reported as “no binding (tested: 20 nM)”; in the experiment with human C4a [2], “no binding (tested: 20 nM)”; with human C5a [3], “binds”; in the experiment with human C5a desarg, “binds”.

B3: 5an179ME (antibody, V domains shown)
VH: EVQLQQSGPELVKPGASVRMSCKASGYTFTSYLIHWVKQKPGQGLEWIGYIYPFNDGTKNNENFKGKATLTSDKSSSTVYMEVSSLTSEDSAVYYCARSHGPHYYGGSYGYHFDYWGQGTTLTVSS
VL: DVVMTQTPLSLPVSLGDQASISCRSSQSLVHSNGNTYLHWYLQKPGQSPKLLIYKVSNRFSGVPDRFSGSGSGTDFTLKISRVEAEDLGVYFCSQSTHVPLTFGAGTKLELKR
notes: Full length mouse IgG2a
Turning to B3, the binding result with human C3a [1] was “no binding (tested: 20 nM)”; with human C4a [2], “no binding (tested: 20 nM)”; with human C5a [3] it was “binds”; with human C5a desarg, “binds”.

B4: BNJ347 (antibody, V domains shown)
VH: QVQLVQSGAEVKKPGASVKVSCKASGYTFTDYSMDWVRQASGKGLEWMGAIHLNTGYTNYNQKFKGRVTITADESTSTAYMELSSLRSEDTAVYYCARGFYDGYSPMDYWGQGTTVTVSS
VL: DIVMTQSPDSLAVSLGERATINCRASESVDSYGNSFMHWYQQKPGQPPKLLIYRASNLESGVPDRFSGSGSGTDFTLTISSLQAEDVAVYYCQQSNEDPYTFGGGTKVEIKR
notes: also called BNJ347 humanized anti-C5a antibody
With B4, the binding result in the experiment with human full-length C5, in the experiment with human C3a [4] and with human C4a [5] was “no binding” in each case.

B5: BNJ345 (antibody, V domains shown)
VH: B4 VH with A9S, V11L, S41P, K43Q
VL: B4 VL
notes: also called BNJ345 humanized anti-C5a antibody
For the molecule B5, the binding result in the experiment with human full-length C5, in the experiment with human C3a [4] and in the experiment with human C4a [5] was “no binding” throughout.

B6: BNJ354 (antibody, V domains shown)
VH: B4 VH with I70M, A72R, E74T, A79V
VL: B4 VL
notes: also called BNJ354 humanized anti-C5a antibody
As to B6, the binding result with human full-length C5, with human C3a [4] and in the experiment with human C4a [5] was “no binding” each time.

B7: BNJ346 (antibody, V domains shown)
VH: B4 VH with S41P, K43Q, M48V
VL: B4 VL
notes: also called BNJ346 humanized anti-C5a antibody
Regarding B7, the binding result with human full-length C5, with human C3a [4] and in the experiment with human C4a [5] was “no binding” each time.

B8: BNJ367 (antibody, human IgG2, kappa)
heavy: QVQLVQSGAEVKKPGASVKVSCKASGYTFTDYSMDWVRQAPGQGLEWMGAINPNSGGTNYNQKFKDRVTMTRDTSTSTVYMELSSLRSEDTAVYYCARSGSYDGYYAMDYWGQGTTVTVSSASTKGPSVFPLAPCSRSTSESTAALGCLVKDYFPEPVTVSWNSGALTSGVHTFPAVLQSSGLYSLSSVVTVPSSNFGTQTYTCNVDHKPSNTKVDKTVERKCCVECPPCPAPPVAGPSVFLFPPKPKDTLMISRTPEVTCVVVDVSQEDPEVQFNWYVDGVEVHNAKTKPREEQFNSTYRVVSVLTVLHQDWLNGKEYKCKVSNKGLPSSIEKTISKAKGQPREPQVYTLPPSQEEMTKNQVSLTCLVKGFYPSDIAVEWESNGQPENNYKTTPPVLDSDGSFFLYSRLTVDKSRWQEGNVFSCSVMHEALHNHYTQKSLSLSLGK
light: DIVMTQSPDSLAVSLGERATINCRASESVDSYGNSFMHWYQQKPGQPPKLLIYRASNLESGVPDRFSGSGSGTDFTLTISSLQAEDVAVYYCQQSNEDPYTFGGGTKVEIKRTVAAPSVFIFPPSDEQLKSGTASVVCLLNNFYPREAKVQWKVDNALQSGNSQESVTEQDSKDSTYSLSSTLTLSKADYEKHKVYACEVTHQGLSSPVTKSFNRGEC
notes: Humanized full length IgG
B8: the Kd with human C5a [6] is under 1000 pM. Moreover, in the experiment with human C5a [7], the equilibrium dissociation constant (Kd) was found to be 198 pM, the koff turned out to be 0.000778 s⁻¹ and the kon came out at 3.94e+06 M⁻¹ s⁻¹.

B9: BNJ366 (antibody, human IgG2, kappa)
heavy: QVQLVQSGAEVKKPGASVKVSCKASGYTFTDYSMDWVRQAPGQGLEWMGAIHLNTGYTNYNQKFKGRVTMTRDTSTSTVYMELSSLRSEDTAVYYCARGFYDGYSPMDYWGQGTTVTVSSASTKGPSVFPLAPCSRSTSESTAALGCLVKDYFPEPVTVSWNSGALTSGVHTFPAVLQSSGLYSLSSVVTVPSSNFGTQTYTCNVDHKPSNTKVDKTVERKCCVECPPCPAPPVAGPSVFLFPPKPKDTLMISRTPEVTCVVVDVSHEDPEVQFNWYVDGVEVHNAKTKPREEQFNSTFRVVSVLTVVHQDWLNGKEYKCKVSNKGLPAPIEKTISKTKGQPREPQVYTLPPSREEMTKNQVSLTCLVKGFYPSDISVEWESNGQPENNYKTTPPMLDSDGSFFLYSKLTVDKSRWQQGNVFSCSVMHEALHNHYTQKSLSLSPGK
light: B8 light
notes: Humanized full length IgG
The molecule B9 returned a Kd with human C5a [6] of under 1000 pM. In the experiment with human C5a [7], binding was characterised by a dissociation constant (Kd) of 150 pM, the koff turned out to be 0.000158 s⁻¹ and the kon was found to be 1.05e+06 M⁻¹ s⁻¹.

B10: BNJ371 (antibody, human IgG2, kappa, V domains shown)
VH: QVQLVQSGAEVKKPGASVKVSCKASGYTFTDYSMDWVRQAPGQGLEWMGAINPNSGGTNYNQKFKDRVTMTRDTSTSTVYMELSSLRSEDTAVYYCARSGSYDGYYAMDYWGQGTTVTVSS
VL: B4 VL with R54W, N57T, L58R
notes: Humanized full length IgG; Light chain CDR2 is humanized
Molecule B10 showed an equilibrium dissociation constant (Kd) with human C5a [6] of under 1200 pM. Further, in the experiment with human C5a [7], the dissociation constant (Kd) is 1180 pM, the koff amounted to 0.00282 s⁻¹ and the kon was 2.38e+06 M⁻¹ s⁻¹.

B11: BNJ364 (antibody, human IgG2, kappa)
heavy: QVQLVQSGAEVKKPGASVKVSCKASGYTFTDYSMDWVRQAPGQGLEWMGAINPNSGGTNYNQKFKDRVTMTRDTSTSTVYMELSSLRSEDTAVYYCARSGSYDGYYAMDYWGQGTTVTVSSASTKGPSVFPLAPCSRSTSESTAALGCLVKDYFPEPVTVSWNSGALTSGVHTFPAVLQSSGLYSLSSVVTVPSSNFGTQTYTCNVDHKPSNTKVDKTVERKCCVECPPCPAPPVAGPSVFLFPPKPKDTLMISRTPEVTCVVVDVSHEDPEVQFNWYVDGVEVHNAKTKPREEQFNSTFRVVSVLTVVHQDWLNGKEYKCKVSNKGLPAPIEKTISKTKGQPREPQVYTLPPSREEMTKNQVSLTCLVKGFYPSDISVEWESNGQPENNYKTTPPMLDSDGSFFLYSKLTVDKSRWQQGNVFSCSVMHEALHNHYTQKSLSLSPGK
light: B8 light
notes: Humanized full length IgG
In turn, B11 gave a Kd in the experiment with human C5a [6] of under 1000 pM. In the experiment with human C5a [7], this molecule yielded a Kd of 644 pM, an off-rate constant (koff) of 0.000638 s⁻¹ and a kon of 991000 M⁻¹ s⁻¹.

B12: BNJ378 (antibody, human IgG2, kappa, V domains shown)
VH: B10 VH
VL: DIQMTQSPSSLSASVGDRVTITCRASESVDSYGNSFMHWYQQKPGKAPKLLIYRASNLESGVPSRFSGSGSGTDFTLTISSLQPEDFATYYCQQSNEDPYTFGGGTKVEIKR
notes: Humanized full length IgG
In the case of B12, the Kd in the experiment with human C5a [6] is under 1000 pM. Besides, in the experiment with human C5a [7], the Kd was found to be 298 pM, the koff is 0.000576 s⁻¹ and the on-rate (kon) is 1.93e+06 M⁻¹ s⁻¹.

B13: BNJ350 (antibody, V domains shown)
VH: B10 VH with M48V, N61S, M70I, R72A, T74E, V79A
VL: B4 VL
notes: also called BNJ350 humanized anti-C5a antibody
Regarding B13, the binding result with human full-length C5, with human C3a [4] and with human C4a [5] was “no binding” in each case.

What is called Kd is the equilibrium constant for the complex coming apart. A higher Kd goes with lower affinity. As usually defined, the koff is a measure of how fast the partners let go of each other. Lower therefore signals slow dissociation. For orientation: kon means a measure of how fast the partners come together.
